# Test results as given in the supplement of paper PMC9170038.
# Tested on: MS2 coat protein
# Experiment: apparent KD of MS2 coat protein; designed switch direction (-1 OFF switch, 1 ON switch): -1; higher = weaker reporter binding
# Method in brief: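 For each design, the apparent KD is the median over clusters of curves fitted to normalised cluster fluorescence. Clusters held RNA switches with common flanks, transcribed on Illumina chips by stalled E. coli RNA polymerase. These were titrated with SNAP-549-labelled MS2 coat protein, doubling from 0.7 or 1.5 nM to 3 µM, without input, with 200 uM small-molecule ligand, or with an oligonucleotide input.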
# [1] = Eterna round: R95, input ligand: FMN 200 uM
# [2] = Eterna round: R95, input ligand: microRNA oligo, concentration not stated
# [3] = Eterna round: R95, input ligand: none
# [4] = input ligand: microRNA oligo, concentration not stated
Sequence,apparent KD of MS2 coat protein [1] [nM],apparent KD of MS2 coat protein [2] [nM],apparent KD of MS2 coat protein [3] [nM],apparent KD of MS2 coat protein (input ligand: FMN 200 uM) [nM],apparent KD of MS2 coat protein [4] [nM],apparent KD of MS2 coat protein (input ligand: none) [nM]
"CGUGUCUUUCACGUGAGUGGUGGGUGCAACAGGUGGGAAACAUGAGGAUCACCCAUGUCCUCACUUGCUCGUCUUUU [Grok-var2-03] (puzzle: Sensor v3, turn-off variant 2)",27.1,109,26.1,,,
"AGUCCAGACGGACCCUCUAACAUGAGGAUCACCCAUGUAGCGGAGGAUAUCCGAAUUUGGGCGACGGAGAAGGCCGUUGCAGGG [Edsosobi] (Eterna round: R96, puzzle: Exclusion NG 3)",,,,21.3,27,27.5
"AUGUUGCGAGGAUAUAUAAGGGUAUAUUCAUAAGAUAUGGAACAUGAGGAUCACCCAUGUAGAAGGUGCAUAAC [JR_Ex2_Sub042] (Eterna round: R97, puzzle: Exclusion 2)",,,,200,,46.2
"GUGUGCACGCUGCGAUCCUACAUGAGGAUCACCCAUGUGGUCUGGUGGCGUGGGUCACCGGACUUGGCUCGUCUUGC [salish99_S_TOV1_R5_072] (Eterna round: R97, puzzle: Sensor, turn-off variant 1)",,,,35.6,,35.8
"AGUAGUAGUUUCCGUUCUUACAUGAGGAUCACCCAUGUUUCUUGACGUGCACGCGAUGCUCGUCAGACUACCAGAUG [salish99_TOv1_r3_056] (puzzle: Sensor v3, turn-off variant 1)",39.3,51.3,56.9,,,
UUAUUUAGUGUGAGGAUAUGCUGGUCGAUAGAUCAGCAGAAGGCACAUGAGGAUCACCCAUGUAAUAUAUUAAA [Mat - Exclusion 4 - JL Mod - D34] (puzzle: Brourd's mod of Exclusion 4),,51.5,,,,
"GAUUAUGCGAGCUUUAGGGACAUGAGGAUCACCCAUGUUCGUCUUAUUAAUCUGGGUACACUAACAUACCUAAAUCU [JMF 9] (puzzle: Sensor v3, turn-off variant 1)",27.7,47.2,31.4,,,
"GUUUCACAUGAGGAUCACCCAUGUGAGGAUAUGGACUUUUUAGUAAUAAUUGUUGGGUUCAGAAGGCGCGUGAU [JR_Exc1_Sub005] (Eterna round: R97, puzzle: Exclusion 1)",,,,53.1,,44.7
UAGAAUCGAGGAUAUACAUGAGGAUCACCCAUGUGUUGCCGCGUGAUGUGUUUGUCAGGUAGAAGGCGAUUAUA [Exclusion 3 - Mod of Jieux's Gilly Gone Silly 23 v.8] (puzzle: Exclusion 3),,63.8,,,,
"UUUACAAGCUUUAGAUCCCACAUGAGGAUCACCCAUGUUGCUGCCGGUGACGGUAGCAUAACUAAUGCUCGUCUUAU [JL TOV1 3.62] (Eterna round: R97, puzzle: Sensor, turn-off variant 1)",,,,123,,235
"CGGGUUCGUGUUAGGAUAUGCACGCACCCGUAGCGGCAGAAGGAACAUGAGGAUCACCCAUGUGAAUAAGAAAA [BmEX4 A.3] (Eterna round: R97, puzzle: Brourd's mod of Exclusion 4)",,,,18.3,,15.5
"ACAUGAGGAUCACCCAUGUGACCACGAUGGCUGAUGUAGACCUAGGAUAUGUGUGAAUAUCUAUCACAGAAGGAGGUUGACUGG [Deportation 51 - Jieux - Exclusion NG 3] (Eterna round: R96, puzzle: Exclusion NG 3)",,,,44.4,34.3,42.7
"GCAGCUAACACAGAUAUGUGCACAUGAGGAUCACCCAUGUCACAGGAUAUGGACUGGAUUACAGUCCAGAAGGGUGAAUGCUGC [Zipper Style 6] (Eterna round: R96, puzzle: Exclusion NG 3)",,,,10.2,7.97,14
"CCAAAGUCAGGAUAUACAUGAGGAUCACCCAUGUAAAAUUUUAAUUUAAUUUGAAGGUGUAGAAGGGACAAACC [Ex3 #32] (Eterna round: R97, puzzle: Exclusion 3)",,,,30.5,,30.3
AGUAACAGAGGAUAUACUGUUUUAUGUGUUUGUUGUUUUAAACAUGAGGAUCACCCAUGUAGAAGGCUGAAUAA [JMF 87] (puzzle: Exclusion 2),,18.8,,,,
"AGGUGUAGAGGAUAUCUCUUCUCUCACAUGAGGAUCACCCAUGUCCUGGUCACCAAGGAGAGAGAAGGCUACACCA [Omei Ex5 D9] (Eterna round: R97, puzzle: Exclusion 5)",,,,56.4,,76.4

Sequence,apparent KD of MS2 coat protein [1] [nM],apparent KD of MS2 coat protein [2] [nM],apparent KD of MS2 coat protein [3] [nM],apparent KD of MS2 coat protein (input ligand: FMN 200 uM) [nM],apparent KD of MS2 coat protein [4] [nM],apparent KD of MS2 coat protein (input ligand: none) [nM]
CAUAUAGUAGUCAGGAUAUGCGAAUAUAUAAUUAAGUAGAAGGGACAUGAGGAUCACCCAUGUAUAUUGUAAAG [EX-4 Malc #2] (puzzle: Brourd's mod of Exclusion 4),26.9,26.1,28.4,,,
"UUAUUGUGAGGAUAUCAGGUGUGCUAGCGUACUGGUACAUCUGAGAAGGCACAUGAGGAUCACCCAUGUUUCUU [JL-ex4-3.22 Brourd mod] (Eterna round: R96, puzzle: Exclusion 4)",,,,69.6,18.9,25
"GCGCACCUACCAAAAGGUAGGUCAACAUGAGGAUCACCCAUGUAGGAUAUCGAUUGCUUUGCAGUCGAGAAGGGCAUGAUGCGC [JL ENG3 3.80 Mod 14] (Eterna round: R96, puzzle: Exclusion NG 3)",,,,59.1,36.6,44.2
"GAAAUACAUGAGGAUCACCCAUGUGAGGAUAUGCUAUGGAAAUAAAAAAUAAAACAUAGCAGAAGGUACAAAAG [Mat - Exclusion 1 - Eli mod - D43] (Eterna round: R96, puzzle: Exclusion 1)",,,,,50.9,
CUUUUGUCAGGAUAUGAGUAGUAGAACAAUAGUACUACUACUCAGAAGGGACAUGAGGAUCACCCAUGUUCCUC [Fiskers Ex 4 Super stable 44 mod 19] (puzzle: Exclusion 4),,16.2,,,,
UUAAUGUGAGGAUAUCAGGUGUGCUAGCGUACUGGUACAUCUGAGAAGGCACAUGAGGAUCACCCAUGUUCCAG [JL-ex4-3.29 Brourd mod] (puzzle: Exclusion 4),,30.5,,,,
CAGUACUGAGGAUAUACAUGAGGAUCACCCAUGUGCUUUAGCUAGGAUACUAGCACUAGUAGAAGGCAGUACUG [Fiskers Ex 3 828 mod 10] (puzzle: Exclusion 3),,12.3,,,,
"CCAAGCUUAUUCAUUAACAACAUGAGGAUCACCCAUGUGUAGGCAAUUAUGUUUGGGCUCUUUAGUGCUCGUCUUAU [Sensor-V1 #22] (Eterna round: R97, puzzle: Sensor, turn-off variant 1)",,,,14.7,,14.7
"CCGCUCCGUGUAGGAUAUUGGCGUGCCCUGCGCCGAGAAGGACAUGAGGAUCACCCAUGUAUGUUAUUAUCACGCGUGGCGCAC [Design 76] (Eterna round: R96, puzzle: Exclusion NG 1)",,,,15.9,12.9,17
"AGUACUAUCACGAAAGUGAUAGUACAAAAAGCAAGUGAAACAUGAGGAUCACCCAUGUCCUCAUUUGCUCGUCUUAU [Identical to 94% Sensor v2, turnoff variant 2] (puzzle: Sensor v3, turn-off variant 2)",16.8,476,12.7,,,
"GUAUAACUACACGGGCUCAACAUGAGGAUCACCCAUGUCACAUACGCAAGCUUUUUGCUUGUCUUAUCUGUCCGUGA [Quleorraa] (puzzle: Sensor v3, turn-off variant 1)",12.3,11.9,10.7,,,
"AUUUUGUGAGGAUAUUAGUAGUAAAUGAAUAAAAUUAUUACUGAGAAGGCACAUGAGGAUCACCCAUGUUCCUA [Mat - Exclusion 4 - Eli Mod - D7] (Eterna round: R97, puzzle: Exclusion 4)",,,,175,,19.2
"GCCCGGCGUGUAGGAUAUGGUUCCGUUUCGGUUCCAGAAGGACAUGAGGAUCACCCAUGUGCCUGUCGUCGGUCGUCACCGGGC [salish99_ExNG1_r04_401] (Eterna round: R96, puzzle: Exclusion NG 1)",,,,11.1,9.87,12.4
GUUAAGGUAGGAUAUACGAUAAUAUAGGGUAGAUAUAUAACACAUGAGGAUCACCCAUGUAGAAGGACCAAGUG [Mat - Exclusion 2 - Mod of my Tesla design - D60] (puzzle: Exclusion 2),,43.4,,,,
GAGUAGGGAGGAUAUACGUGCUCAAUCCCGGAAAGCGGGAAACAUGAGGAUCACCCAUGUAGAAGGCCCAUAAA [Riisen] (puzzle: Exclusion 2),,68.4,,,,
